Reference: the nanobody polyreactivity screen of Harvey et al. (2022)

Assay: yeast display, Sf9 membrane polyspecificity reagent, FACS + sequencing; frameworks hold sequencing errors
Summary of the method: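 Galactose-induced (36–48 hours) yeast carrying a synthetic nanobody display library were exposed to 10% biotinylated, detergent-solubilized Sf9 membrane reagent at 4 °C for 1 hour. FACS followed streptavidin microbead enrichment, using low and high (top ~1%) gates for expression (anti-HA) and reagent binding (streptavidin). Colony PCR, MiSeq 2 × 250 sequencing and CDR-length filtering followed. Labels for polyreactivity reflect the gate of origin.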

Sequence | polyreactivity (PSR sort gate)
QVQHVESGGGLVQAGVSLRLSCAASGFTFYNYAMGWYRQAPGKERELVAAITSSGTSTYYADSVKGRFTISRDNAKNTVYLQMNSLKPEDTAVYYCNAVSSYYYSYDYWGQGTQVTVSS | low polyreactivity
QVQLVESGGGLVQAGGSLRLSCAASGFTLWYYAMGWYRQAPGKERELVAGINSGGRTYYADSVKGRFTISRDNAKNTVYLQMNSLKPEDTAVYNCNARAWSSISHNSYIMDYWGQGTQVTVSS | high polyreactivity
QVQLVESGGGLVQAGGSLRLSCAASGRTFRDNTMGWYRQAPGKERELVAGISSSTGSTYYADSVKGRFTISRDNAKNTVYLQMNSLKPEDTAVYYCAAEYADYWTYNMGYWGQGTQVTVSS | low polyreactivity
QVQLVESGGGIVQAGGSLRLSCAASGRTFRGNAMGWSRQAPVKERELVATIRRPGGSTYYADSVKGRFTISRDNAKNTVYLQMNSLKPEDTAVYYCNALNYYLYDKTFDYWGQGTKVTVSS | high polyreactivity
QVQLVESVGGLGQAGGSLRLSCAASGYIFRPDAMGWYRQEPGKERELVAVISSGGSTYYADSVKGRFTISRDNAKNTVYLQMNSLKPEDTAVYYCNRTLPSIGGTTYEYWRQGTQVTVSS | low polyreactivity
QVQIVESGGGLVQAGGSLRLSCAASGSIFQGNPMGWYRQAPWKEREFVAAISWSGDSTYYADSVKGRFTISRDNAKYSVYLQMNSLKTEDTAVYYCGADPWDIYRRLSPGDHDYWGQCTQVTVSS | low polyreactivity
QVQLVESGGGLVQAGGSLRFSCAASGRTFYVYALGWYRQAPGKERELVARIRGRGGITFYADSVKGRFTISRDNAKNTVYLQMNSLKPEDTAVYYCAADFRSNYDYWGQGTQVTVAS | high polyreactivity
QVQLVESGGGLVQAGGSLRLSCAASGSIIDINALGWYRQAPRKERDLVAAISLSAGSTYYADSVKGRFSISRDNAKNTVYLQMNSLKPEDTAVYYGAAERGGRGTLRNRYDYWGQGTQVTVSS | low polyreactivity
QVQLQESGGGLVQAGGSMRLSCAATGSISELRPMGWYSQAPGKERELVAGISTGGSTNYADSVKGRFTISRDNAKNTVFLQMNSLKPEDTAVYYCAAGSYGEGTYDYWGQGTQVTVRS | high polyreactivity
QVQLVESGGGLGQAGGSLRLSCAASGFTFRYYAMGWSRQAPGKERELVAAITGSGGRTYYADSVKGRFTISRDNAKNTVYLQKNSLKPEDSAVYYCARDVDPRGRYYWGQGTQVTVSS | high polyreactivity
QVQLVESGGGLVQAGGSLRLSCAASGRIFGRYAMGWYRQATGKERELVAAITSGGRTSYADSVKGRFTISRDNAKNTVYLQMNSLKPEDTAVYYCNVVSRNSIRFDYWGQGTQVTVSS | high polyreactivity
QVQLVESGGGLVQAGGTLRLSCAASGIIFDQNAMGWYRQAPGKERELVAAISWSGGGTYYADSVKGRFTISRDNAKNTVYLQMNSLKPEDTAVSYCAVEDMSHAYVQHYRFGYGYWGQGTQVTVSS | low polyreactivity
QVQLVESGGGLVQAGGSLRLSCAASGGIFDRYAMGWYRQAPGKERELVAAITSGGSTNYADSVKGRFTISRDNAKNTVYLQMISLKPEDTAVYYCNADLGILSGVAEGPTFREYDYWGQGTQVTVSS | low polyreactivity
QVQLVESGGGLVQAGGSLRLSCAASGIIFSPYAMGWYRQAPGKERELVAAISYSGGSTYYADSVKGRFTITRDNAKNTVYLQMNSLKPEDTAVYYCAVVYSYYLAVLGYWDYDYWGQGTQVTVSS | low polyreactivity
QDQLVQSGGGLVQAGGSLRLSCAASAITFVIYSMGWYRQAPGKERELVAAIDGSDGSTYYADSVKGRFTISRDTAKNTVYLQMNSLKPEDTAVYYCNADTGGYYVTGSYLYNEYDYWGQGTQVTVSS | low polyreactivity
QVQLVESGGGLVQAGGSLRLSCAASGITFGRNTMGWYRQAPGKERELVAAIDSGGNTYADSVKGRFTISRDNAKNTVFLQMNSLKPEDTAVYYCAVDGGEFSSYGYWGQGTQVTVSS | low polyreactivity
QVQLVESGGGLVQAGGSLRLTCAASRRTFEHYAMGWYRQAPVKEREYVAAINSSDGGTYYADSVKGRFTISRDNAKNTVYLQMIRLKPDDSAVYYCAAAEFGSVPGYEMDYWGQGTQVTVSS | low polyreactivity
QVQLVESGGGLVQAGGSLRLSCAASGSIIVGYAMGWYRQAPGTERELVAAISWSGGRTYYADSVKGRFTISRDNAKNSVYLQMNSLKPEDTAVYYCATVTKGSLRYNYNYWGQGTQVTVSS | high polyreactivity
QVQLVESGGGLVQAGGSLRLSCAASGRTFWFYGMGWYRQAPGKERELVADITSGGGTYYADSVKGRFTISRDNAKNTVYLQMNSLKPEDTAVYYCNAYKTHVVPATYDSEEYWGQGTQVTVSS | low polyreactivity
QVQLVESGGGLVQAGGSLRLSCAASGFTYLYAMGWYRQAPGKESELDAAISYSGGSTYYADSVKGRFTISRDNAKNTVYLQMNSMKPEDTAVYYCAAGYGTVRGVSYDYWGQGTQVTVSS | low polyreactivity
QVPLVESGGGLVQAGGSLRLSCAASGSTFTRYAMGWYRQAPGKEREFVAGISSRGSRTYYADSVKGRFTISRDNAKNTVYLQMNSLKPEDTAVYYCAVSGNHVSPPYGYWGQGTQLTVSS | high polyreactivity
QVQLVESGGGLVQAGGSLRLSCAASGLTFWVYTMGWYRQAPGKERELVARITSRGASTYYADSVKGRFTISRDNAKNTVYLQMNSLKPEDTAVYYCATDRYRIYPDYDYWGQGTQVTVSS | high polyreactivity

Sequence | polyreactivity (PSR sort gate)
QVQLVESGGGLVQAGGSLRLSCAASGFILDWYAMGWYRQAPGKERELVAAISYSGGSTYYADSVKGRFTISRDNAKNTVYLQMNSLKPEDTAVYYCNADIWYGDMDYWGQGTQVTVSS | high polyreactivity
QVQLVESGGGLVQAGGSLRLSCAASGSTFEYNAMGWYRQAPGKERELVASSTNYADSGKGRFTISRDNAKNTVYLQMNSLKPEDTAVYYCAREQGVNRNHDYWGQGTQVTVSS | low polyreactivity
QVQHVESGVGLVQAGGSLRLSCAASGFTFGWYAMGWYRQAPGKERELVASISWSGSTTYYADSVKGRFTISRDIAKNTVYLQMNSLKPEDTAVYYCNARRSYVRNDFDYWGQGTQVTVSS | high polyreactivity
QVQLVESGGGLVQAGGSLRLSCAASGRTFGRYAMGWYRQAPGKERELVAAITWSGGSTYYADSVKGRFTISRDYAKNTVYLQMNSLKPEDTAVYYCAAARVYFGDLFVVYYFIQYDYWGQGTQVTVSS | low polyreactivity
QVQLVESGGGLVQAGGRLRLSCAASGFIFTDNGMGWYRQAPGKERELVAAINSDGSTYYADSVKGRFTISRDNAKNTVYLQMNSLKPEATAVYYCAVDGSITEIYLPGYGYGYWGQGTQVTVSS | low polyreactivity
QVQLVESGGGLVQAGGSLRLSCAASGITFYLYAMGWYRQAPGKERELVAAISSSGGSTYYADSVKGRFTISRDNAKNTVYLQMNSLKPEDTAVYYCNARRRTVPYRYYYWGQGTQVTVSS | high polyreactivity
QVQLVESGGGLVQAGGSLRLSCAASGSIFGVYAMGWYRQAPGKERELVAAISQSGGRTYYADSVKGRFTISRDNAKNTVYLQMNSLKPEDTAVYYCAAVVFNVYRRYWGQGTQVTVSS | high polyreactivity
QVQLVESGGGLVQAGGSLRLSCAASGIIFTYYAMGWYRQAPGKERELVAAITSSAGSTYYADSVKGRFTISRDNAKNTVYLQMNSLKPVDTAVYYCAAYSVYYYQGDDYWGQGTQVTVSS | high polyreactivity
QVQLVESGGGLVQAGGSLRLSCAASGSIFGYYAMGWYRQAPGKERELVAAITTRGGRTYYADSVKGRFTISRDNAKNTVYLQMNSLNPEDTAVYYCAARTGRGRYDYWGQGTQVTVSS | high polyreactivity
QVQLVESGGGLVQAGGSLRLSCAASGLTLGRYAKGWYRQAPGKARELVAVITGGGSTNYADSVKGRFTISRDNAKNTVYLQMNTLKTEDTAVYFCAVRGGIFQTLSTWYRYYYWGQGTQVTVSS | high polyreactivity
QVQLVESGGGLVQAGGSLRLSCAASGRIFWRYAMGWYRQAPGQERELVAAISRGGGRTYYADSVKGRFTSSRDNAKNTVYLQMNSLKPEDTAVYYCAARSTQGRFENWGQGTQVTVSS | high polyreactivity
QVQLVESGGGLVQAGGSLRLSCAASGIIFAGNAMGWYRQEPGKERELVAAISSGTTTNYADSVKGRFTISRDNAKNTVYLQMNSLKPEDTAVYYCAADDFPYKSDYWGQGTQVTVSS | low polyreactivity
HVQLVESGGGLVQAGGSLRLSCAASGSISAVNTMGWYRQAPGKERELVATISYSTASTYYADSVKGRFTISRDNAKNTVYLQMNSLKPEDTAVYYCAADAYFDTWYDYWGQGTQVTVSS | low polyreactivity
QVQLVESGGGFDQAGGSLRLSCAACGSIFWSNAMGWYRQAPGKERELVAAISSGGSTYADSVKGRLTISRDNAKNTVYLQMNSLKPEDNAVYYCNADVLYGDCYRGGYWGQGTQVTVSS | low polyreactivity
QVQLVESGGGLVQAGGSLRLSCAASGSTFGAYAMGWYRQAPGKEREFVAGISVRGGSTYYADSVKGRFTISRDNAKNTVYLQMNSLKPEDTAVYYCAARRVDTRVHVRYRYYYWGQGTQVTVSS | high polyreactivity
QVQLVESGGGLVQAGGSLRLSCAATGSIFSYYDMAWYRQAPGNERELVAGISRGGSTNYADSVKGRFTISRDNGKNTVYLQMNSLKEEDTAVYYCNADQSSRTYPFRRSRRSWLYGYWGQGTQVTVSS | low polyreactivity
QVQLVESGGGLVQAGGSLRLSCAASGSTFYRNVMGWYRQAPGKERELVAAISSGGSTYYADSVKGRFTISRDNAKNTVYLQMNSLKPEDTAVYYCARRLTREYDYWGQGTQVTVSS | low polyreactivity
QVQLVESGGGLVQAGGSLRLSCAASGRIFVYNDMGWYRQAPGKERELVAAISSVGTTYYADSVKGRFTISRDNAKNTVYLQMNSLKPEDTAVYYCAVTRYHSPPRYYYWGQGTQVTVSS | low polyreactivity
QVQLVESGGGLVQAGGSLRLSCAASRSIFVRNAMGWYRPAPGKERELVAAITSDVNTYYADSVKGRFTISRDNAKNTVYLQMNSLKPEDTAVYYCAKGVTSQPNDPAPFPRYEYWGQGTQVTVSS | low polyreactivity
QVQLVESGGGLVQAGGSLRLSCAASGFTVGYYAMAWYRQAPGKERELVAAISYVGGTTYYADSVKGRFTISRDNAKKTVYLQMNSLKPEDTAVYYCATLYRGSVRYYYWGQGTQVTVSS | high polyreactivity
QVQLVESGGGLVQAGGSLRLSCAASGFTFHYNAMGWYRQAPGKERELVAAITSGGSTYYADSVKGRFTISRDNAKNTVYLQMNSLKPEDTAVYYCNKLYYRYHHNYDYWGQGTQVTVSS | high polyreactivity
